Measurements from patent publication US5753435.
Each block holds one binder with its values, some of them ahead of it.

What was measured:
[1] = molecular target: T1, low molecular weight (LMW) polypeptide component of the oxido reductase system of Penicillium chrysogenum (Penicillium chrysogenum)
T1 sequence: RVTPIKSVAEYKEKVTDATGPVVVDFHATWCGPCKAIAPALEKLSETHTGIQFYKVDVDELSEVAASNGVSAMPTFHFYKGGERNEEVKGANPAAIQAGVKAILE

[2] = molecular target: thioredoxin obtained from Spirulina platensis (Spirulina platensis)
[3] = molecular target: T1, low molecular weight (LMW) polypeptide component of the oxido reductase system of Penicillium chrysogenum (Penicillium chrysogenum); remark: listed apart in the source
[4] = molecular target: T1, low molecular weight (LMW) polypeptide component of the oxido reductase system of Penicillium chrysogenum (Penicillium chrysogenum); remark: listed apart in the source
[5] = molecular target: thioredoxin obtained from Spirulina platensis (Spirulina platensis); remark: listed apart in the source
[6] = molecular target: δ-(L-α-aminoadipyl)-L-cysteinyl-D-valine (ACV) synthetase purified from Acremonium chrysogenum C10 (ATCC 48272) (Acremonium chrysogenum) (UniProt P25464)

- bis-ACV reductase activity: µmol NADPH oxidized per minute (340 nm) (µmol NADPH/minute) [1]: 2.25
- bis-ACV reductase activity: µmol NADPH oxidized per minute (340 nm) (µmol NADPH/minute) [2]: 1.93
- production of isopenicillin N from bis-ACV by IPNS under non-reducing conditions: antibiotic µg/ml by bioassay on Micrococcus luteus [3]: 72 µg/mL
- DTNB reductase activity: increase of absorbance at 412 nm after 15 minutes (absorbance at 412 nm) [4]: 0.225
- DTNB reductase activity: increase of absorbance at 412 nm after 15 minutes (absorbance at 412 nm) [5]: 0.08
B1: high molecular weight (HMW) polypeptide component of the oxido reductase system of Penicillium chrysogenum (enzyme)
chain: VHSKVVIIGSGPGAHTAAIYLSRAELQPVLYEGMLANGTAAGGQLTTTTDVENFPGFPSGIGGAELMDNMRAQSERFGTEIITETISKLDLSSRPFKMWTEWNDDEGSEPVRTADAVIIATGANARRLNLPGEETYWQNGISACAVCDGAVPIFRNKPLYVIGGGDSAAEEAMFLAKYGSSVTVLVRKDKLRASNIMADRLLAHPKCKVRFNTVATEVIGENKPNGLMTHLRVKDVLSNAEEVVEANGLFYAVGHDPASGLVKGQVELDDEGYIITKPGTSFTNVEGVFACGDVQDKRYRQAITSAGSGCVAALEAEKFIAETETHQEAKPVL

- KM for reduction of the protein disulphide in insulin (insulin): 2300 µM
B2: oxido reductase enzyme system of Penicillium chrysogenum (HMW and LMW components together, with NADPH) (enzyme)
chain 1: VHSKVVIIGSGPGAHTAAIYLSRAELQPVLYEGMLANGTAAGGQLTTTTDVENFPGFPSGIGGAELMDNMRAQSERFGTEIITETISKLDLSSRPFKMWTEWNDDEGSEPVRTADAVIIATGANARRLNLPGEETYWQNGISACAVCDGAVPIFRNKPLYVIGGGDSAAEEAMFLAKYGSSVTVLVRKDKLRASNIMADRLLAHPKCKVRFNTVATEVIGENKPNGLMTHLRVKDVLSNAEEVVEANGLFYAVGHDPASGLVKGQVELDDEGYIITKPGTSFTNVEGVFACGDVQDKRYRQAITSAGSGCVAALEAEKFIAETETHQEAKPVL
chain 2: RVTPIKSVAEYKEKVTDATGPVVVDFHATWCGPCKAIAPALEKLSETHTGIQFYKVDVDELSEVAASNGVSAMPTFHFYKGGERNEEVKGANPAAIQAGVKAILE

- ACVS activity: dpm of labelled ACV produced from [14C]valine [6]: 509 dpm
B3: low molecular weight (LMW) polypeptide component of the oxido reductase system of Penicillium chrysogenum (protein)
chain: RVTPIKSVAEYKEKVTDATGPVVVDFHATWCGPCKAIAPALEKLSETHTGIQFYKVDVDELSEVAASNGVSAMPTFHFYKGGERNEEVKGANPAAIQAGVKAILE
